Drawing on article PMC3781060, this text covers neurite outgrowth of primary embryonic sensory neurons cultured for 2 weeks with MMP-9-PEX (100 nM), quantified as GAP-43 mRNA compared to GST and neurite outgrowth of primary embryonic sensory neurons cultured for 2 weeks with RBD, compared to GST controls for two molecules.

Assay [1] deals with low-density lipoprotein (LDL) receptor-related protein-1 (LRP1) (rat (endogenous in PC12 cells and primary DRG neurons)) (UniProt G3V928).
The target is the same in assay [2]. This is another data set of the same source.

Bounds are passed on as bounds.

Sequence of UniProt G3V928 (G3V928 20-4545): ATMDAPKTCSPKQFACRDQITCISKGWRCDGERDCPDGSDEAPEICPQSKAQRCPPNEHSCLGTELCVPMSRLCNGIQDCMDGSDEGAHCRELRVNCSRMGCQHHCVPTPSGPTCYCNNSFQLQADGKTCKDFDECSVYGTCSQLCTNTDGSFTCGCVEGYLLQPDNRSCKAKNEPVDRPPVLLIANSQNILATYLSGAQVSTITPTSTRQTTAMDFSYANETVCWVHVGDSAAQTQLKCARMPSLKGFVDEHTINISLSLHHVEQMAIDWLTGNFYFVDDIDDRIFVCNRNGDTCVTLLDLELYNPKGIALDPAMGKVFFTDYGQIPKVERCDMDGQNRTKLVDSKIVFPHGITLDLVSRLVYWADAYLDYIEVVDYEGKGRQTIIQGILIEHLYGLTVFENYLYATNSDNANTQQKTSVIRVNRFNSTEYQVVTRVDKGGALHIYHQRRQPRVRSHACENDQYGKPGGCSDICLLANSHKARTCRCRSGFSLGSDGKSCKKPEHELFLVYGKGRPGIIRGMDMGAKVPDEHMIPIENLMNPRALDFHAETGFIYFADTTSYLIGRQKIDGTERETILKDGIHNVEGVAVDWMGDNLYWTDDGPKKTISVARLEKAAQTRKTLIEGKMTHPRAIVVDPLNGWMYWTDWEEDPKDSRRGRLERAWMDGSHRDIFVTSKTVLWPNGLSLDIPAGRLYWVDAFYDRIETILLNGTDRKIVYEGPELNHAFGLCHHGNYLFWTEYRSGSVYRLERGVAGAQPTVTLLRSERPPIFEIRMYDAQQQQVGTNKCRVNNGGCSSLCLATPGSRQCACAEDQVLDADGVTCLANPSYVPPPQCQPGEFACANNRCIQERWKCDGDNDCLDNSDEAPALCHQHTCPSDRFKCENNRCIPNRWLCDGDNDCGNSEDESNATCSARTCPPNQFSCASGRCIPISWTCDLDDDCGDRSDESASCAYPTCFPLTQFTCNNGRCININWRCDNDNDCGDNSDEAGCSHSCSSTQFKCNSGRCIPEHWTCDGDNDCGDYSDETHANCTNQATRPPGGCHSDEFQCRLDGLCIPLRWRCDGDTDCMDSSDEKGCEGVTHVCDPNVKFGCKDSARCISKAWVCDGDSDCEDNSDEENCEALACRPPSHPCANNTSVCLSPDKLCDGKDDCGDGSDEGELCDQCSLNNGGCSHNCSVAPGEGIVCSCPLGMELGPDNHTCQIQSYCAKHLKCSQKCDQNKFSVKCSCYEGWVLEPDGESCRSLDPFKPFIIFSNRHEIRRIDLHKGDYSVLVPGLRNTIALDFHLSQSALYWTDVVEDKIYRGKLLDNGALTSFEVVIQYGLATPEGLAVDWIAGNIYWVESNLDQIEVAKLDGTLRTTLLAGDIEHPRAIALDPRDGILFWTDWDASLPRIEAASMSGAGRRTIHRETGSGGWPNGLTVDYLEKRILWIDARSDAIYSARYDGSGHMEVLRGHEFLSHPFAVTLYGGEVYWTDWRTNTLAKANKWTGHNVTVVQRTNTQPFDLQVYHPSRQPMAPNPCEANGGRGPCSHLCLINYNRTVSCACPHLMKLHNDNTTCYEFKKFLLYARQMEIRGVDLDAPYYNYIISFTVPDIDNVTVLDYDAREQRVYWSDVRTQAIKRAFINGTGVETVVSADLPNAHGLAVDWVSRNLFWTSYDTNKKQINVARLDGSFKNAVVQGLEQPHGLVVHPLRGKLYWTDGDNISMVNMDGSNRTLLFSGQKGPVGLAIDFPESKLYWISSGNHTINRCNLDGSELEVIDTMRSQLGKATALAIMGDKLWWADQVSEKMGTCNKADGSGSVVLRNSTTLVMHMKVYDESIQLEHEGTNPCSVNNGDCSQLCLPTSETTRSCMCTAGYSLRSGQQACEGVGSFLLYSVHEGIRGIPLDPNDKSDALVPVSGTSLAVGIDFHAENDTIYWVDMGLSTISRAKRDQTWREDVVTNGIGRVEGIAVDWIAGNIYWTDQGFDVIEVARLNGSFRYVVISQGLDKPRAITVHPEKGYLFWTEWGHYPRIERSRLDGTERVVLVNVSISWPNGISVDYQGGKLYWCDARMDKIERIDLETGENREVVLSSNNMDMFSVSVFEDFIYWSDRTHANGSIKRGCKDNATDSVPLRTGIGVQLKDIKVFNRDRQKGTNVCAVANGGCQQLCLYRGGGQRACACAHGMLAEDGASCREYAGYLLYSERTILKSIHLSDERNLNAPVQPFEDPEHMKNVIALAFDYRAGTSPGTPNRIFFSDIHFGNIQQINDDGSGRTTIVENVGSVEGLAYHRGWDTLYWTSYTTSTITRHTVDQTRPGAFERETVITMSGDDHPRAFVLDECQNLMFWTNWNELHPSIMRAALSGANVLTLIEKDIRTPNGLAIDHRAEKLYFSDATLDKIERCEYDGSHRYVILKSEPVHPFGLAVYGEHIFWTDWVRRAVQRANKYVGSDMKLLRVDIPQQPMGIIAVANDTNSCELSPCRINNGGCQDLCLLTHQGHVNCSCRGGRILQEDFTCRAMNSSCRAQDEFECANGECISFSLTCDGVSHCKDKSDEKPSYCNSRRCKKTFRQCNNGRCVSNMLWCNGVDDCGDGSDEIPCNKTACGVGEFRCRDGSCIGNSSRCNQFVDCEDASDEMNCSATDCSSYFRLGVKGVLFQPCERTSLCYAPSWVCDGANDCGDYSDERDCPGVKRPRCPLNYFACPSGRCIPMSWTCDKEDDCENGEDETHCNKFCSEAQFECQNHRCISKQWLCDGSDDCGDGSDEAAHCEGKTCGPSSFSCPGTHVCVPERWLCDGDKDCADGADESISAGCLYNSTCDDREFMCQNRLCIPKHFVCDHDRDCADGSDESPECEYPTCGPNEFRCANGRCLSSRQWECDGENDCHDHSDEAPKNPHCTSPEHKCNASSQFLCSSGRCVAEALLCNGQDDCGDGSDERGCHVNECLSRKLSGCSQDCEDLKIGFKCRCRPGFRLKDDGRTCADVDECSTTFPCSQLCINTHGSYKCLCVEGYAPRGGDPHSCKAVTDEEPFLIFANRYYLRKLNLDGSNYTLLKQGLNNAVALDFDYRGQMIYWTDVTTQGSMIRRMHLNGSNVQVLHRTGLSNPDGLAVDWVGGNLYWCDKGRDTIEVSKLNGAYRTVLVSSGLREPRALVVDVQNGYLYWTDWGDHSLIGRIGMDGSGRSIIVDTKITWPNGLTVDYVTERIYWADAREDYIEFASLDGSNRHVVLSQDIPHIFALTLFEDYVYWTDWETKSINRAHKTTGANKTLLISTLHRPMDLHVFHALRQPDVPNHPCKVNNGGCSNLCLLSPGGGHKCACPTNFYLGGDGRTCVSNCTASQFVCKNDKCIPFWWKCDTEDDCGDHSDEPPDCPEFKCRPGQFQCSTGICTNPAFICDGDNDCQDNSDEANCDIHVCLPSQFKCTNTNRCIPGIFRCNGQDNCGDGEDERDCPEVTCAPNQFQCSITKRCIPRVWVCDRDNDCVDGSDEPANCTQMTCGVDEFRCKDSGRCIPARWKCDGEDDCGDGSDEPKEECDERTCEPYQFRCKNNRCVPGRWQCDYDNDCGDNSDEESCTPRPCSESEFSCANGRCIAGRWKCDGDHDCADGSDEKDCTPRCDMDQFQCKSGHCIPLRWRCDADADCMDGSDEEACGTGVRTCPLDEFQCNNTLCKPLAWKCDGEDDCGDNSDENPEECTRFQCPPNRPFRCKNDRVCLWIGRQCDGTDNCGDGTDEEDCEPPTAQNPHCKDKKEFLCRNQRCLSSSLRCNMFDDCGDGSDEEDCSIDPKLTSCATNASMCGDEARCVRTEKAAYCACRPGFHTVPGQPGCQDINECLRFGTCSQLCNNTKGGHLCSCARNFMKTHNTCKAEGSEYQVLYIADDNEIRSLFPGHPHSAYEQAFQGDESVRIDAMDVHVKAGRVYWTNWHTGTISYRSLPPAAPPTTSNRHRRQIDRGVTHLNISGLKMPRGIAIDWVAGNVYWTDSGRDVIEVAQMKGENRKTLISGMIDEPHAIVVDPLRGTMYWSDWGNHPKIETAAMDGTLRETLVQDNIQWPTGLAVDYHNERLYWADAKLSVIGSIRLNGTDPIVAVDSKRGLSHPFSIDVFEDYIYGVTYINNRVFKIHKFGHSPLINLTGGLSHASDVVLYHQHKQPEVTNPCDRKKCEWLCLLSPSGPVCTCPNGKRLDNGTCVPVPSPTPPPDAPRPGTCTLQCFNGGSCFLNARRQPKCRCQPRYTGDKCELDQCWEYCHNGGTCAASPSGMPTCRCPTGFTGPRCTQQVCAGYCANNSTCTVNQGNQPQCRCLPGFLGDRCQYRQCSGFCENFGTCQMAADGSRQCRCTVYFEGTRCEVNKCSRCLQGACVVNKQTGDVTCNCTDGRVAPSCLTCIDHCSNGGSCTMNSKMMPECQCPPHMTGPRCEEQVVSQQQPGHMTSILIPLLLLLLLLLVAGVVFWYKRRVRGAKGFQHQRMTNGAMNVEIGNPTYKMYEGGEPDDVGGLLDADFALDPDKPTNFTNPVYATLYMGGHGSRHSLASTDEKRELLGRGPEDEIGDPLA

As for “GST fusion protein of the hemopexin domain of matrix metalloprotease-9 (MMP-9-PEX) (domain or fragment)”, the neurite outgrowth of primary embryonic sensory neurons cultured for 2 weeks with MMP-9-PEX (100 nM), quantified as GAP-43 mRNA compared to GST in assay [1] was 15 fold.

B1: GST fusion protein of the Receptor Binding Domain of α2-macroglobulin (RBD) (domain or fragment)
chain: GAATFTRTGKAAQVTIQSSGTFSSKFQVDNNNRLLLQQVSLPELPGEYSMKVTGEGCVYLQTSLKYNILPEKEEFPFALGVQTLPQTCDEPKAHTSFQISLSVSYTGSRSASNMAIVDVKMVSGFIPLKPTVKMLERSNHVSRTEVSSNHVLIYLDKVSNQTLSLFFTVLQDVPVRDLKPAIVKVYDYYETDEFAIAEYNAPCSKDLGNA
On to B1, for which, in assay [2], the neurite outgrowth of primary embryonic sensory neurons cultured for 2 weeks with RBD, compared to GST controls is > 40 fold.
